The target of data set [1] is PorX. Description: SEC-MALLS absolute molecular weight. The conditions noted are these: reference: PorX with MgCl2 alone; sites D58.
Data set [2] deals with PorX (wild type, non-phosphorylated) (Porphyromonas gingivalis W83) (UniProt B2RJJ3). Description: SAXS.
Data set [3] has the same target. The experiment in a line: SAXS. This is another data set of the same source.
For data set [4], the target named is PorX. Description: small-angle X-ray scattering in solution. The conditions noted are these: reference: PorX without BeF3; sites D58.
Data set [5] has as its target Selenomethionine variant of PorX, phosphorylated with acetyl phosphate (Porphyromonas gingivalis W83) (UniProt B2RJJ3). Description: SEC-MALS.
The data set “crystal structure” concerns the molecule itself. Description: crystal structure.
Data set [6] concerns the molecule itself. Description: SEC.
Data set [7] concerns the molecule itself. The experiment in a line: SEC. The source holds these as a separate data set.

These results are taken from publication PMC9757075 (Nucleic Acids Research, 2022).

Read-outs that look alike come from different tables or passages of the source.

In the case of “PorX PorX pre-incubated with AcP and MgCl2”, in the data set with PorX [1], the “other: MALLS molecular weight” value is on record as “gained; reference 70.2”.

As to “PorX (wild type, non-phosphorylated) (from UniProt B2RJJ3 1-518) (natural protein)”, the stoichiometry N in data set [2] and in data set [3] was 2 each time.

With PorX PorX with BeF3 and MgCl2, in the data set with PorX [4], the “other: radius of gyration” value is given as “gained; reference 29.6”.

On to “Selenomethionine variant of PorX, phosphorylated with acetyl phosphate (from UniProt B2RJJ3 1-518) (natural protein)”, for which the stoichiometry N in data set [5] worked out at 2.

B1: PorX T272A, selenomethionine variant (T272A-pGpG crystal) (natural protein, Porphyromonas gingivalis W83)
chain: MEKNMRPYTVLWADDEIDLLKPHILFLEQKGYQVTPVLSGNDAIEALQNNDFDIVFLDENMPGIGGLDALQKIKELKPYTPVVMITKSEEEHIMTQAIGGKIADYLIKPVNPNQLLLSLKKNLQQHSIISETTNTNYRQEFVQLGAQMSGKLSFEEWKELYRRIVFWEIELEQADRQMGELLEMQKQEANRLFARFVTQNYREWIAKPDTRPTMSPDLFKQKVFPLLDNGEKVFFILIDNFRQDQWESVKSMLSEFYTFEEDMYLSILPTAAQYARNAIFSGLMPLQIEKMFPDLWVDEESEEGKNLNEEPMIRTLIERYRKHYSFSYNKVYETKFGERLLGQIRSLSQNQLNVIVLNFVDMMSHARTDSKMIRELASNEAAYRSLTKSWFKHSTTYNLFRSIAEMGYKVVLTTDHGTIQVKNPVKVIGDRSTNTNLRYKIGKNLDYNPKEVFEIKDPASVGLPHNNLSDKFIFTKEDDFFAYPNNYNYYVQYYRNTFQHGGISLEEMLVPVITMQPK
modifications: selenomethionine
For B1, the binding result in the data set “crystal structure” is listed as “binds”.

B2: PorX T272A (natural protein, Porphyromonas gingivalis W83)
chain: B1 chain
Consider B2, for which the binding result in “SEC [6]” is listed as “binds”.

B3: PorX T272A incubated with acetyl phosphate (phosphorylated) (natural protein, Porphyromonas gingivalis W83)
chain: B1 chain
modifications: phosphorylated with acetyl phosphate (attenuated against the wild type)
Take B3: in “SEC [7]”, the binding result is reported as “binds”.
